Measured values taken from the supplement of paper PMC10567573.

B1: CSNK1G1 (parent)
chain: GSLPWQGLKADTLKERYQKIGDTK

Variants of: B1
Assay: protein stability index of a GFP-peptide fusion (GPS, HEK-293T) (PSI 1-6); higher = more stable
Conditions: c terminus: a fixed tail appended
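Further: lentivirally expressed fusions sorted by FACS into six bins by GFP to DsRed ratio, PSI derived from sequencing read proportions per bin multiplied by bin number.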

Protein stability index, by site and new letter:
K19: Y 3.86 | I 3.54 | L 3.74 | F 3.05 | M 3.68 | G 4.17 | V 3.83 | D 4.67 | R 3.75 | H 4.24 | N 4.35 | S 3.95 | E 4.45 | T 4.3 | P 3.95 | C 3.56 | W 2.83 | Q 4.8 | A 3.94
L8: I 4.13 | D 4.75 | E 4.44 | T 4.9 | Y 3.63 | C 3.35 | Q 4.24 | H 4.36 | M 4.35 | G 4.76 | A 3.73 | P 4.43 | S 4.64 | F 3.54 | W 3.69 | K 4.17 | N 4.58 | R 4.32 | V 4.66
L13: S 4.62 | M 3.46 | V 3.7 | Q 4.47 | A 3.96 | G 4.12 | H 4.64 | P 4.06 | C 3.71 | R 4.27 | W 3.05 | N 4.81 | E 4.66 | F 4.2 | T 4.65 | Y 3.72 | D 4.49 | K 4.15 | I 4.48
G21: Y 3.74 | D 4.57 | H 4.15 | Q 4.44 | T 3.83 | K 4.71 | R 4.16 | C 3.29 | N 3.86 | W 3.01 | E 4.37 | A 3.59 | M 3.87 | I 3.41 | S 4.3 | V 3.64 | L 4 | P 4.62 | F 3.42
Q6: V 4.33 | K 4.13 | N 3.92 | S 3.98 | P 4.57 | W 2.74 | C 3.4 | G 4.13 | L 3.77 | M 4.07 | R 3.96 | H 4.62 | D 4.48 | Y 2.89 | E 4.32 | F 3.25 | A 3.7 | T 4.24 | I 3.94
Y17: E 5.71 | M 4.23 | L 4.19 | K 4.72 | C 4.27 | I 4.21 | F 4.19 | P 4.88 | N 4.98 | H 5.05 | A 4.98 | W 3.82 | V 4.04 | S 4.45 | G 5.36 | T 4.83 | Q 4.81 | D 4.99 | R 4.13
I20: S 4.65 | W 3.62 | E 5.24 | C 4.35 | T 4.46 | V 4.3 | P 4.75 | N 4.62 | K 4.33 | D 4.86 | M 4.53 | Y 4.29 | A 4.67 | L 3.86 | R 4.2 | G 5 | H 4.47 | F 4.26 | Q 4.36
E15: A 3.74 | G 4.07 | N 3.39 | M 3.51 | P 3.97 | T 3.93 | D 4.25 | I 3.26 | K 3.29 | Q 4.09 | V 3.31 | L 3.66 | F 3.56 | R 3.98 | H 3.43 | W 2.77 | Y 3.1 | C 3.37 | S 3.47
Q18: P 4.66 | E 4.54 | S 4.35 | M 3.64 | I 3.57 | Y 3.74 | G 4.09 | V 3.64 | K 3.62 | L 3.91 | T 4.26 | A 4.46 | F 2.91 | C 3.76 | D 4.47 | R 3.96 | H 4.09 | N 4.11 | W 3.34
R16: L 4.11 | F 3.98 | H 4.35 | P 4.37 | I 3.26 | Q 4.44 | A 4.29 | N 4.68 | K 4.23 | G 4.89 | T 4.07 | V 4.25 | Y 4.01 | S 4.71 | M 4.11 | D 4.54 | C 4.29 | E 4.69 | W 2.99
D22: C 3.81 | L 3.32 | W 2.64 | V 3.65 | T 3.52 | R 3.43 | P 3.7 | H 3.75 | E 3.91 | I 3.41 | M 3 | Q 3.82 | S 4.05 | Y 2.98 | K 3.56 | N 3.2 | A 3.06 | G 3.74 | F 3
G7: M 3.85 | T 3.89 | E 4.31 | S 4.01 | N 4.64 | Q 3.9 | H 3.72 | K 3.75 | W 3.52 | L 3.44 | F 2.42 | I 3.52 | A 4.39 | C 3.4 | D 4.33 | Y 3.49 | R 3.56 | P 4.38 | V 3.65
T12: W 3.27 | H 3.71 | N 4.07 | E 4.85 | Y 3.51 | V 4.2 | I 3.42 | A 3.99 | F 2.86 | Q 4.19 | L 3.37 | P 4.86 | S 4.58 | K 4.28 | M 3.94 | G 3.83 | R 4.33 | D 4.68 | C 4.06
D11: A 3.64 | F 2.89 | S 4.11 | N 3.37 | E 4.13 | L 3.76 | C 3.63 | P 4.11 | T 3.61 | M 3.32 | I 3.73 | G 3.8 | R 3.57 | W 2.9 | V 2.8 | Y 3.44 | Q 3.56 | K 3.93 | H 3.69
K14: N 4.58 | S 3.88 | T 4.09 | E 4.23 | M 3.36 | W 2.74 | G 3.08 | D 4.02 | H 4.37 | I 3.75 | Y 3.37 | V 4.14 | L 3.1 | A 4.55 | Q 3.52 | R 3.8 | P 4.41 | F 3.13 | C 3.81
W5: Y 4.43 | R 4.29 | V 4.58 | L 4.62 | T 5.09 | M 4.61 | N 4.97 | K 4.74 | P 4.62 | Q 4.38 | S 4.99
A10: W 3.56 | K 4.28 | Y 3.63 | P 4.39 | H 4.11 | F 3.5 | C 3.48 | L 3.32 | T 4.48 | I 3.6 | E 4.06 | G 4.46 | M 3.7 | S 4.2 | V 4.19 | Q 4 | D 5.01 | N 4.62 | R 4.06
K9: E 4.69 | P 5.08 | A 3.71 | N 4.46 | C 3.93 | Q 3.89 | M 3.87 | D 4.25 | F 3.66 | L 3.18 | T 4.35 | R 4.09 | S 4.2 | V 3.77 | Y 4.13 | W 3.58 | H 4.24 | I 3.79 | G 3.9
